T1: mouse procaspase-14 (Mus musculus, UniProt O89094)
T1 construct: made in house
T1 sequence (O89094 1-257): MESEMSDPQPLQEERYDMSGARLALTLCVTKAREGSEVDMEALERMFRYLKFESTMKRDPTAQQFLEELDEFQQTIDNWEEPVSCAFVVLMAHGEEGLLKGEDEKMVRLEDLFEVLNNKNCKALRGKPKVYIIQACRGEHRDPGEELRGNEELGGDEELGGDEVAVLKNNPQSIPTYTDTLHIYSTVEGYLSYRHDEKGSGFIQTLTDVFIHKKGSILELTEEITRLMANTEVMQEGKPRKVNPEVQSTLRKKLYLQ

B1: TRAIL: cytotoxic ligand TRAIL (protein, UniProt P50591 1-281, looked up)
Tumor necrosis factor ligand …: MAMMEVQGGPSLGQTCVLIVIFTVLLQSLCVAVTYVYFTNELKQMQDKYSKSGIACFLKEDDSYWDPNDEESMNSPCWQVKWQLRQLVRKMILRTSEETISTVQEKQQNISPLVRERGPQRVAAHITGTRGRSNTLSSPNSKNEKALGRKINSWESSRSGHSFLSNLHLRNGELVIHEKGFYYIYSQTYFRFQEEIKENTKNDKQMVQYIYKYTSYPDPILLMKSARNSCWSKDAEYGLYSIYQGGIFELKENDRIFVSVTNEHLIDMDHEASFFGAFLVG
B2: procaspase-3: small prodomain executioner procaspase used as control (protein, UniProt P42574 1-277, looked up)
pro-form: MENTENSVDSKSIKNLEPKIIHGSESMDSGISLDNSYKMDYPEMGLCIIINNKNFHKSTGMTSRSGTDVDAANLRETFRNLKYEVRNKNDLTREEIVELMRDVSKEDHSKRSSFVCVLLSHGEEGIIFGTNGPVDLKKITNFFRGDRCRSLTGKPKLFIIQACRGTELDCGIETDSGVDDDMACHKIPVEADFLYAYSTAPGYYSWRNSKDGSWFIQSLCAMLKQYADKLEFMHILTRVNRKVATEFESFSFDATFHAKKQIPCIVSMLTKELYFYH
modifications: pro-form
notes: small prodomain executioner procaspase used as control
B3: procaspase-14: proenzyme of caspase-14, a cell death specific cysteine protease of the caspase family (mouse SEQ ID NO:2) (protein)
chain: KPDMESEMSDPQPLQEERYDMSGARLALTLCVTKAREGSEVDMEALERMFRYLKFESTMKRDPTAQQFLEELDEFQQTIDNWEEPVSCAFVVLMAHGEEGLLKGEDEKMVRLEDLFEVLNNKNCKALRGKPKVYIIQACRGEHRDPGEELRGNEELGGDEELGGDEVAVLKNNPQSIPTYTDTLHIYSTVEGYLSYRHDEKGSGFIQTLTDVFIHKKGSILELTEEITRLMANTEVMQEGKPRKVNPEVQSTLRKKLYLQ
B4: caspase-14: purified recombinant caspase-14 material containing small amount of active caspase-14 (protein)
chain: B3 chain

Assays:
[1] = target: T1, mouse procaspase-14; experiment: Processing of 35S labeled procaspase-14 by Granzyme B and purified recombinant caspases; type: biochemical; conditions: Granzyme B 14 ng/μl or recombinant caspases 20 ng/μl, ICE buffer, 37° C., 1 h, FIG. 5B
Procedure: Upon expression in bacteria, all procaspases are known to autoprocess to various degrees to generate the mature caspase which is composed of the large and small subunits. The observed auto-activation in bacterial overexpression systems is probably mediated by overexpression-induced oligomerization. […] To test this possibility procaspase-14 was incubated with Granzyme B which is known to process several caspase proenzymes. In addition procaspase-14 was incubated with different purified recombinant caspases.
Processing of mouse procaspase-14 by Granzyme B and purified recombinant caspases was carried out under the following conditions: ^35S labeled procaspase-14 was incubated with purified Granzyme B (14 ng/μl) or the indicated purified recombinant caspases (20 ng/μl) in ICE buffer (25 mM Hepes, 1 mM EDTA, 5 mM DTT, 0.1% CHAPS, pH 7.5) at 37° C. for 1 h. The reactions were stopped by addition of an SDS-sample buffer and then the products were analyzed by SDS-PAGE and autoradiography.

[2] = system: procaspase-14; experiment: Processing of T7-tagged procaspase-14 in MCF-7-FAS cells after anti-Fas antibody or TRAIL; type: cell-based; conditions: treated 36 h after transfection for 3 h, FIG. 5C
Procedure: (§1) Since caspase-8 and -10 are initiator caspases that are activated by oligomerization of the death receptors (i.e., Fas, TRAIL-R) by their ligands or agonist antibodies, the possibility that procaspase-14 is processed in vivo after induction of apoptosis by anti-Fas antibody or the cytotoxic ligand TRAIL was tested. A mammalian expression construct encoding N-terminal T7-tagged procaspase-14 was transfected into MCF-7-FAS cells. The cells were treated 36 h after transfection with agonist anti-Fas antibody or TRAIL for 3 h. Cells were harvested and lysed by addition of SDS-sample buffer. The cellular proteins were analyzed by SDS-PAGE and then immunoblotted with an anti-T7 HRP-conjugated monoclonal antibody (FIG. 5C, left panel) to detect procaspase-14. The same samples were also immunoblotted with a polyclonal antibody (anti-Mch3α) that preferentially detects the proform of caspase-7 (FIG. 5C, middle panel), or a mixture of the anti-Mch3α antibody and CM-1 antibody that preferentially detects the processes fragments of caspase-7 (FIG. 5C, right panel) to detect the endogenous caspase-7. Pro indicates the proenzyme, LS indicates the large subunit and SS indicates the small subunit. […] The cleavage products of procaspase-14 were not clearly detectable probably due to loss of the epitope tag after processing of the small prodomain of procaspase-14 at Asp7 or Asp 17. […]

[3] = system: procaspase-7; experiment: Processing of endogenous procaspase-7 in MCF-7-FAS cells after anti-Fas antibody or TRAIL; type: cell-based; conditions: treated for 3 h, FIG. 5C
Procedure: as §1

[4] = Autoprocessing of procaspases overexpressed in bacteria (SDS-PAGE, Coomassie); type: biochemical; conditions: expressed in Escherichia coli, Talon-affinity purified, FIG. 5A
[5] = system: MCF-7 cells; experiment: Overexpression of procaspases in MCF-7 cells, morphological signs of apoptosis; type: cell-based; conditions: transient transfection, X-gal staining 30 h after transfection, FIG. 4
Text: On the other hand overexpression of the large prodomain initiator procaspases such as procaspase-8 can induce apoptosis, due to their ability to undergo prodomain-mediated oligomerization. To test the ability of procaspase-14 to induce apoptosis in transfected cells, MCF-7 cells were transiently transfected with procaspase-14 in a PRSC lac-Z expression construct under the CMV promoter. Cells were also transfected with an empty vector or constructs encoding procaspase-3, -6, -8, or -10 as controls. The cells were stained with X-gal 30 h after transfection and examined for morphological signs of apoptosis The percentage of round blue apoptotic cells (mean±SD) were represented as a function of total blue cells under each condition (n≧3). SD was less than 5%.

[6] = system: S100 extracts from human embryonic kidney 293 cells; experiment: Cytochrome c dependent processing of procaspases in S100 extracts; type: biochemical; conditions: cytochrome c 50 ng/μl, dATP 1 mM, 30° C., 1 h, FIG. 6
Procedure: To determine if caspase-14 was activated by a way of Apaf-1 and caspase-9, cytochrome c dependent activation was tested. ^35S labeled procaspase-3 (FIG. 6, lanes 1 & 2), procaspase-7 (FIG. 6, lanes 3 & 4), or procaspase-14 (FIG. 6, lanes 5 & 6) were incubated with S100 extracts from human embryonic kidney 293 cells in the absence (−) or presence (+) of cytochrome c (50 ng/μl) and dATP (1 mM) in buffer A (20 mM Hepes, 10 mM KCl, 1.5 mM MgCl2, 1 mM EDTA, 1 mM EGTA, 1 mM DTT, 0.1 mM PMSF, pH 7.5) at 30° C. for 1 h. The reaction products were then analyzed by SDS-PAGE and autoradiography.

Molecule	processing of procaspase-14 [1]	processing of the proenzyme on overexpression in bacteria [4]	induction of apoptosis (round blue apoptotic cells as a function of total blue cells) [5]	further results
Granzyme B: purified protease known to process several caspase proenzymes	significant amount of processing	–	–	–
B1	–	–	–	processing of procaspase-14 (decreased intensity of proenzyme band) [2]: able to induce processing; processing of procaspase-7 (decreased intensity of proenzyme band) [3]: able to induce processing
B2	–	completely processes	unable to induce any significant amount of apoptosis	–
B3	–	no significant processing	unable to induce any significant amount of apoptosis	cleavage/activation in S-100 extracts activated by cytochrome c and dATP [6]: no cleavage/activation
B4	Some processing	–	–	–
